# T1: Plasmodium vivax Duffy binding protein region II (PvDBP-RII) (Plasmodium vivax, UniProt P22290 211-508)
# T1 chain: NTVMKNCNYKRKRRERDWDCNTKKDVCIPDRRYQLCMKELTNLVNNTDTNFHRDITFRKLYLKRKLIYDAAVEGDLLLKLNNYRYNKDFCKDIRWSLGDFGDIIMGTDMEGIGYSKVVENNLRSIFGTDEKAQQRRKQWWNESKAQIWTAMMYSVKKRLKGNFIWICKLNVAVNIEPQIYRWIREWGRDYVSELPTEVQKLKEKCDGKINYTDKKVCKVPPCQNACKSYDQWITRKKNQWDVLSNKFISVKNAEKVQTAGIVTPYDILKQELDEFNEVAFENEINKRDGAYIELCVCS
# T2: PvDBP-RII subdomain 3 (Plasmodium vivax, UniProt P22290 211-508)
# T2 chain: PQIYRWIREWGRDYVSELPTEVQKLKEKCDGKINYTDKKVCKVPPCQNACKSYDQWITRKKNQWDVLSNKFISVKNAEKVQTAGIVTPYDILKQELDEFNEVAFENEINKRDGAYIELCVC
# B1: monoclonal antibody DB9 (antibody, V domains shown)
# VH: EVQLQESGPGLVKPSETLSLTCTVSGGSVSSSTYYWGWVRQPPGKGLEWIGSIYYSGSTYYNPSLKSRVTISVDTSKNQFSLKLSSVTAADTAVYYCARDGTGALDLWGRGTLVTVSS
# VL: DIVMTQSPSTLSASVGDRVTITCRASQSISSWLAWYQQRPGKAPRLLIYKASSLLSGVPSRFGGSGSGTDFTLTISSLQPDDFATYHCQHYNTYPWTFGQGTKVEIK
# notes: the Fab part of the heavy chain is in PDB 6R2S and PDB 9EZE; the light chain is in PDB 6R2S and PDB 9EZE
# Tests used:
# [1] = target: T3, PvDBP-RII subdomain 3 (Plasmodium vivax Salvador I, UniProt P22290); test: SPR; Biacore T200; DB9 captured on a CM5 chip amine-coupled with protein A/G; analytes flowed in a two-fold dilution series from 1 μM; 20mM HEPES pH 7.4, 150mM NaCl, 0.005% Tween-20; details: both partners purified
# T3 construct: also called SD3; not shown: His-tag, N-terminal, cleaved
# [2] = target: T4, Plasmodium vivax Duffy binding protein region II (PvDBP-RII) (Plasmodium vivax Salvador I (strain as …, UniProt P22290)); test: as above; details: both partners purified
# T4 construct: The tag and its TEV cleavage hold only if the pET15b construct was the one used; SalI is named only for the transgenic parasites; also called RII region of PvDBP; source: the same paragraph also says cloned into modified pET15b, expressed in E. coli BL21-DE3; not shown: His-tag, N-terminal, cleaved
# [3] = target: T1, Plasmodium vivax Duffy binding protein …; test: SPR
# [4] = target: T2, PvDBP-RII subdomain 3; test: SPR
binder,measurement,setting,value
B1,Kd,[1],1.11 nM
same,Kd,[2],2.63 nM
same,koff,[3],0.000976 s⁻¹
same,koff,[4],0.00172 s⁻¹

# Source: doi:10.1101/2024.06.23.600241 (bioRxiv, 2024)
